B1: GST–CNOT1_(1088–1312) (domain or fragment)
chain: ENIQEKIAFIFNNLSQSNMTQKVEELKETVKEEFMPWVSQYLVMKRVSIEPNFHSLYSNFLDTLKNPEFNKMVLNETYRNIKVLLTSDKAAANFSDRSLLKNLGHWLGMITLAKNKPILHTDLDVKSLLLEAYVKGQQELLYVVPFVAKVLESSIRSVVFRPPNPWTMAIMNVLAELHQEHDLKLNLKFEIEVLCKNLALDINELKPGNLLKDKDRLKNLDEQLS
B2: maltose-binding protein (MBP)-tagged full-length human DDX6 (natural protein)
chain: MSTARTENPVIMGLSSQNGQLRGPVKPTGGPGGGGTQTQQQMNQLKNTNTINNGTQQQAQSMTTTIKPGDDWKKTLKLPPKDLRIKTSDVTSTKGNEFEDYCLKRELLMGIFEMGWEKPSPIQEESIPIALSGRDILARAKNGTGKSGAYLIPLLERLDLKKDNIQAMVIVPTRELALQVSQICIQVSKHMGGAKVMATTGGTNLRDDIMRLDDTVHVVIATPGRILDLIKKGVAKVDHVQMIVLDEADKLLSQDFVQIMEDIILTLPKNRQILLYSATFPLSVQKFMNSHLQKPYEINLMEELTLKGVTQYYAYVTERQKVHCLNTLFSRLQINQSIIFCNSSQRVELLAKKISQLGYSCFYIHAKMRQEHRNRVFHDFRNGLCRNLVCTDLFTRGIDIQAVNVVINFDFPKLAETYLHRIGRSGRFGHLGLAINLITYDDRFNLKSIEEQLGTEIKPIPSNIDKSLYVAEYHSEPVEDEKP

How the values were obtained:
Test in all cases: pull-down
[1] = target: B2
[2] = target: T1, MBP–DDX6 N-term (residues 1–302) (human, UniProt P26196 1-302)
T1 sequence: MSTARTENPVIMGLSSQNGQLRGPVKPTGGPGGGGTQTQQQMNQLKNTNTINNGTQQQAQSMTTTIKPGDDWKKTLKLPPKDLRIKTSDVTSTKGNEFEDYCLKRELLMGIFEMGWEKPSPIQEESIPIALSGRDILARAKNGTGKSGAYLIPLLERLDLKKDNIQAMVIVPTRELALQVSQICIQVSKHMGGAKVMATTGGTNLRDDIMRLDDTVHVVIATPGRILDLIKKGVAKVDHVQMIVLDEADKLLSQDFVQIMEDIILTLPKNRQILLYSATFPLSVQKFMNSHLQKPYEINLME

[3] = target: GST–CNOT1_(1075–1575) (human, UniProt A5YKK6-2 1075-1575)
[4] = target: B1

GST–CNOT1_(1075–1575), sequence (A5YKK6 1080-1580): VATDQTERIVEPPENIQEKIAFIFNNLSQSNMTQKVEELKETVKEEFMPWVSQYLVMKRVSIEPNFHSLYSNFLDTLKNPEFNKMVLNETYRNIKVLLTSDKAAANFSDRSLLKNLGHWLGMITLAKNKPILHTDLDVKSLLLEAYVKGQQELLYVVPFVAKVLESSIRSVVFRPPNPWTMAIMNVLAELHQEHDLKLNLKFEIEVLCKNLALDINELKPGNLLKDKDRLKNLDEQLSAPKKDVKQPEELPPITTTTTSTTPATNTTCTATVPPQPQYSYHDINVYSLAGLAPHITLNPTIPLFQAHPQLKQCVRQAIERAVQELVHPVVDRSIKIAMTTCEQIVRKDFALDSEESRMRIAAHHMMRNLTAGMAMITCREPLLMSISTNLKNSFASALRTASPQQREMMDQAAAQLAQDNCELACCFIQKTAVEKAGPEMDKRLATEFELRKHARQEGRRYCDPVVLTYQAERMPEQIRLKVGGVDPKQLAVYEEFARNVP

B1: binds [1]; binds [2].

B2: binds [3].

B3: MBP–DDX6 C-term (residues 303–483) (domain or fragment)
chain: ELTLKGVTQYYAYVTERQKVHCLNTLFSRLQINQSIIFCNSSQRVELLAKKISQLGYSCFYIHAKMRQEHRNRVFHDFRNGLCRNLVCTDLFTRGIDIQAVNVVINFDFPKLAETYLHRIGRSGRFGHLGLAINLITYDDRFNLKSIEEQLGTEIKPIPSNIDKSLYVAEYHSEPVEDEKP
B3: binds [4].

— article PMC4138323 (RNA, 2014)
